Test results as given in the supplement of paper PMC10724198.
± gives the standard deviation of the averaged measurements.

Assays:
Saccharomyces cerevisiae [1] = assay: protein stability index of tFT-peptide fusion (C-terminal peptide) (PSI (0-1 scale)); higher = more stable (slower turnover); conditions: genetic background: wild type; temperature: 30 C
Saccharomyces cerevisiae [2] = assay: as above
Method: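 MPS profiling in S. cerevisiae of the tFT-X12 degron library: putative degron peptides plus stable controls, 12 aa, fused to the C-terminus of a sfGFP-mCherry timer. Cells are FACS-sorted into 8 mCherry/sfGFP bins and deep-sequenced. PSI runs from 0 (unstable) to 1 (stable). Backgrounds are wild type, das1Δ and doa10Δ at 30 °C, and wild type, das1Δ, cdc34-1 and cdc53-1 at 37 °C; 2-3 technical replicates each.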

[3] = genetic background: cdc34-1, temperature: 37 C
[4] = genetic background: cdc53-1, temperature: 37 C
[5] = genetic background: das1 deletion, temperature: 30 C
[6] = genetic background: das1 deletion, temperature: 37 C
[7] = genetic background: doa10 deletion, temperature: 30 C
[8] = genetic background: wild type, temperature: 30 C
[9] = genetic background: wild type, temperature: 37 C
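Also: PSI is a weighted mean of sequencing reads over stability bins, variants kept only with over 10 reads, mCherry proximal and sfGFP distal, peptide attached via GGGS linker.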

Row | Sequence | protein stability index (Saccharomyces cerevisiae [1]) | protein stability index (Saccharomyces cerevisiae [2]; [3]) | protein stability index (Saccharomyces cerevisiae [2]; [4]) | protein stability index (Saccharomyces cerevisiae [2]; [5]) | protein stability index (Saccharomyces cerevisiae [2]; [6]) | protein stability index (Saccharomyces cerevisiae [2]; [7]) | protein stability index (Saccharomyces cerevisiae [2]; [8]) | protein stability index (Saccharomyces cerevisiae [2]; [9])
1 | FCSFSWFLFLRS | 0.405 ± 0.034 | 0.211 ± 0.0051 | 0.123 ± 0.023 | 0.329 ± 0.02 | 0.359 ± 0.0085 | 0.599 ± 0.01 | 0.337 ± 0.016 | 0.312 ± 0.022
2 | FCVLLFCAVSDL | 0.317 ± 0.03 | 0.289 ± 0.032 | 0.383 ± 0.03 | 0.239 ± 0.036 | 0.4433 ± 0.0013 | 0.212 ± 0.0092 | 0.24 ± 0.036 | 0.398 ± 0.0074
3 | FCVVFFLSLVFL | 0.495 ± 0.046 | 0.457 ± 0.01 | 0.491 ± 0.03 | 0.391 ± 0.027 | 0.511 ± 0.013 | 0.4225 ± 0.0026 | 0.386 ± 0.0062 | 0.49 ± 0.0029
4 | FFDLSLYSLCLC | 0.378 ± 0.064 | 0.623 ± 0.019 | 0.69 ± 0.059 | 0.466 ± 0.013 | 0.6476 ± 0.0029 | 0.229 ± 0.009 | 0.271 ± 0.029 | 0.4649 ± 0.0011
5 | FFFFPVYFIFVV | 0.311 ± 0.0065 | 0.272 ± 0.014 | 0.288 ± 0.05 | 0.259 ± 0.02 | 0.409 ± 0.013 | 0.259 ± 0.01 | 0.232 ± 0.016 | 0.32 ± 0.0059
6 | FFFFSMFSFFIP | 0.477 ± 0.054 | 0.503 ± 0.056 | 0.576 ± 0.0068 | 0.485 ± 0.017 | 0.564 ± 0.013 | 0.438 ± 0.013 | 0.466 ± 0.031 | 0.531 ± 0.0034
7 | FFFVLVSGWWGV | 0.36 ± 0.041 | 0.181 ± 0.0054 | 0.344 ± 0.059 | 0.237 ± 0.027 | 0.472 ± 0.044 | 0.205 ± 0.022 | 0.221 ± 0.021 | 0.374 ± 0.013
8 | FFLDRLVIRLIA | 0.105 ± 0.052 | 0.1487 ± 0.00028 | 0.173 ± 0.0047 | 0.248 ± 0.029 | 0.383 ± 0.0071 | 0.0576 ± 0.024 | 0.0715 ± 0.011 | 0.0735 ± 0.014
9 | FFLFFLSFGCFL | 0.529 ± 0.048 | 0.489 ± 0.078 | 0.533 ± 0.031 | 0.421 ± 0.029 | 0.5391 ± 0.0019 | 0.4551 ± 0.0028 | 0.459 ± 0.032 | 0.505 ± 0.016
10 | FFLKPVPSLFLC | 0.14 ± 0.014 | 0.388 ± 0.015 | 0.5971 ± 0.005 | 0.519 ± 0.021 | 0.6657 ± 0.0034 | 0.0796 ± 0.014 | 0.0677 ± 0.0064 | 0.0767 ± 0.016
11 | FFLVLWSSLLSP | 0.454 ± 0.036 | 0.457 ± 0.025 | 0.5545 ± 0.00086 | 0.378 ± 0.035 | 0.572 ± 0.006 | 0.3584 ± 0.0021 | 0.386 ± 0.033 | 0.5441 ± 0.0011
12 | FFRPWRLVGCLV | 0.331 ± 0.065 | 0.263 ± 0.0038 | 0.312 ± 0.011 | 0.265 ± 0.024 | 0.3692 ± 0.0036 | 0.189 ± 0.017 | 0.215 ± 0.018 | 0.266 ± 0.02
13 | FFSFTVLVSYGF | 0.352 ± 0.017 | 0.18 ± 0.011 | 0.256 ± 0.015 | 0.192 ± 0.025 | 0.34 ± 0.0067 | 0.186 ± 0.0095 | 0.187 ± 0.023 | 0.284 ± 0.0081
14 | FFSLMFVFLTVF | 0.278 ± 0.033 | 0.113 ± 0.018 | 0.131 ± 0.043 | 0.201 ± 0.03 | 0.276 ± 0.015 | 0.192 ± 0.0063 | 0.164 ± 0.02 | 0.23 ± 0.012
15 | FFSLRRAVTVSA | 0.349 ± 0.069 | 0.208 ± 0.013 | 0.217 ± 0.0034 | 0.212 ± 0.028 | 0.372 ± 0.0052 | 0.168 ± 0.0042 | 0.2 ± 0.029 | 0.3273 ± 0.002
16 | FFSPFFFFLFRL | 0.414 ± 0.058 | 0.306 ± 0.11 | 0.309 ± 0.0057 | 0.366 ± 0.035 | 0.453 ± 0.0074 | 0.483 ± 0.019 | 0.351 ± 0.0064 | 0.3971 ± 0.0026
17 | FFVISVVLCLLV | 0.43 ± 0.0088 | 0.377 ± 0.015 | 0.48 ± 0.016 | 0.341 ± 0.022 | 0.447 ± 0.022 | 0.325 ± 0.0033 | 0.344 ± 0.019 | 0.434 ± 0.015
18 | FFVRSWWVELLF | 0.424 ± 0.0097 | 0.642 ± 0.029 | 0.719 ± 0.017 | 0.558 ± 0.026 | 0.682 ± 0.024 | 0.296 ± 0.0038 | 0.335 ± 0.031 | 0.5502 ± 0.0055
19 | FFYRFQDLPRIC | 0.397 ± 0.074 | 0.681 ± 0.018 | 0.743 ± 0.037 | 0.651 ± 0.015 | 0.7358 ± 0.0068 | 0.191 ± 0.018 | 0.231 ± 0.035 | 0.537 ± 0.033
20 | FGFFLFIFFFFR | 0.402 ± 0.12 | 0.246 ± 0.044 | 0.295 ± 0.027 | 0.301 ± 0.032 | 0.429 ± 0.015 | 0.333 ± 0.0034 | 0.276 ± 0.039 | 0.349 ± 0.031

Row | Sequence | protein stability index (Saccharomyces cerevisiae [1]) | protein stability index (Saccharomyces cerevisiae [2]; [3]) | protein stability index (Saccharomyces cerevisiae [2]; [4]) | protein stability index (Saccharomyces cerevisiae [2]; [5]) | protein stability index (Saccharomyces cerevisiae [2]; [6]) | protein stability index (Saccharomyces cerevisiae [2]; [7]) | protein stability index (Saccharomyces cerevisiae [2]; [8]) | protein stability index (Saccharomyces cerevisiae [2]; [9])
21 | FGFFRLVIVCFR | 0.31 ± 0.16 | 0.135 ± 0.046 | 0.19 ± 0.021 | 0.175 ± 0.032 | 0.313 ± 0.0089 | 0.176 ± 0.017 | 0.172 ± 0.019 | 0.283 ± 0.013
22 | FGFWGVVSCCNA | 0.63 ± 0.18 | 0.559 ± 0.045 | 0.566 ± 0.03 | 0.472 ± 0.02 | 0.599 ± 0.0011 | 0.459 ± 0.01 | 0.477 ± 0.011 | 0.5833 ± 0.0054
23 | FGPRLLRVMRLL | 0.22 ± 0.04 | 0.562 ± 0.017 | 0.712 ± 0.018 | 0.639 ± 0.018 | 0.7306 ± 0.0047 | 0.128 ± 0.017 | 0.157 ± 0.044 | 0.207 ± 0.061
24 | FGVLFFVFVFVC | 0.177 ± 0.024 | 0.149 ± 0.015 | 0.243 ± 0.051 | 0.193 ± 0.02 | 0.322 ± 0.011 | 0.112 ± 0.021 | 0.129 ± 0.022 | 0.203 ± 0.03
25 | FGVLLVWWYGLF | 0.289 ± 0.039 | 0.236 ± 0.016 | 0.367 ± 0.027 | 0.253 ± 0.05 | 0.4335 ± 0.0032 | 0.1894 ± 0.0014 | 0.204 ± 0.016 | 0.314 ± 0.0076
26 | FGVSLFLPLSVV | 0.407 ± 0.017 | 0.4023 ± 0.0021 | 0.415 ± 0.006 | 0.32 ± 0.026 | 0.46 ± 0.011 | 0.281 ± 0.0048 | 0.308 ± 0.023 | 0.4184 ± 0.0035
27 | FIFYYTVLLLCR | 0.181 ± 0.014 | 0.0366 ± 0.0015 | 0.0671 ± 0.0072 | 0.131 ± 0.024 | 0.171 ± 0.0048 | 0.13 ± 0.0087 | 0.115 ± 0.019 | 0.1312 ± 0.0012
28 | FIICAASWFFLG | 0.224 ± 0.025 | 0.456 ± 0.025 | 0.624 ± 0.032 | 0.474 ± 0.036 | 0.62 ± 0.02 | 0.109 ± 0.014 | 0.127 ± 0.016 | 0.225 ± 0.079
29 | FILATGKGRWVV | 0.333 ± 0.1 | 0.686 ± 0.044 | 0.776 ± 0.017 | 0.636 ± 0.0087 | 0.7432 ± 0.0033 | 0.266 ± 0.0031 | 0.306 ± 0.029 | 0.532 ± 0.024
30 | FILSLSFVFSRP | 0.405 ± 0.073 | 0.415 ± 0.037 | 0.501 ± 0.011 | 0.425 ± 0.027 | 0.462 ± 0.012 | 0.452 ± 0.039 | 0.441 ± 0.046 | 0.441 ± 0.026
31 | FIRLTFLRLSCI | 0.255 ± 0.022 | 0.546 ± 0.021 | 0.623 ± 0.03 | 0.51 ± 0.034 | 0.638 ± 0.031 | 0.183 ± 0.015 | 0.199 ± 0.0096 | 0.391 ± 0.0049
32 | FLASLCFFPLLC | 0.456 ± 0.014 | 0.388 ± 0.041 | 0.413 ± 0.031 | 0.42 ± 0.027 | 0.5574 ± 0.0039 | 0.496 ± 0.024 | 0.372 ± 0.02 | 0.5038 ± 0.0034
33 | FLAWSVGILCRV | 0.317 ± 0.018 | 0.228 ± 0.023 | 0.225 ± 0.022 | 0.238 ± 0.036 | 0.351 ± 0.011 | 0.213 ± 0.0026 | 0.224 ± 0.041 | 0.318 ± 0.023
34 | FLCLFFLAVIKL | 0.383 ± 0.028 | 0.241 ± 0.018 | 0.188 ± 0.012 | 0.344 ± 0.034 | 0.412 ± 0.031 | 0.502 ± 0.007 | 0.309 ± 0.037 | 0.356 ± 0.013
35 | FLFLLLFLLLCC | 0.407 ± 0.0033 | 0.467 ± 0.0069 | 0.488 ± 0.0017 | 0.377 ± 0.03 | 0.534 ± 0.049 | 0.349 ± 0.011 | 0.318 ± 0.033 | 0.4634 ± 0.00047
36 | FLFPFLSVLFLL | 0.245 ± 0.034 | 0.477 ± 0.014 | 0.506 ± 0.0071 | 0.479 ± 0.03 | 0.5591 ± 0.0049 | 0.176 ± 0.0088 | 0.176 ± 0.0083 | 0.232 ± 0.014
37 | FLFSVVFFFFSL | 0.421 ± 0.066 | 0.368 ± 0.028 | 0.4558 ± 0.0032 | 0.353 ± 0.021 | 0.5154 ± 0.003 | 0.322 ± 0.011 | 0.35 ± 0.025 | 0.4586 ± 0.0045
38 | FLLEVFVLGRTL | 0.4742 ± 0.0019 | 0.627 ± 0.0076 | 0.653 ± 0.023 | 0.43 ± 0.018 | 0.597 ± 0.0081 | 0.402 ± 0.032 | 0.432 ± 0.022 | 0.577 ± 0.012
39 | FLLFSFFFFFFF | 0.482 ± 0.011 | 0.44531 ± 9.3e-05 | 0.4388 ± 0.0028 | 0.409 ± 0.041 | 0.52 ± 0.013 | 0.489 ± 0.037 | 0.384 ± 0.021 | 0.488 ± 0.008
